Source: US7648964B2, “Use of lacritin in promoting ocular cell survival” (University of Virginia Patent Foundation, priority 2004, dated 2010)

B1: N-24: deletion mutant comprising a deletion of the 24 amino terminal amino acids of lacritin (protein)
chain: DSTGADPAQEAGTSKPNEEISGPAEPASPPETTTTAQETSAAAVQGTAKVTSSRQELNPLKSIVEKSILLTEQALAKAGKGMHGGVPGGKQFIENGSEFAQKLLKKFSLLKPWA
modifications: homo sapiens
notes: deletion mutant comprising a deletion of the 24 amino terminal amino acids of lacritin
B2: lacritin: recombinant human lacritin from E. coli; mature 119 residue fragment (SEQ ID NO:10) of native lacritin SEQ ID NO:4 (protein, listed as Homo sapiens)
chain: EDASSDSTGADPAQEAGTSKPNEEISGPAEPASPPETTTTAQETSAAAVQGTAKVTSSRQELNPLKSIVEKSILLTEQALAKAGKGMHGGVPGGKQFIENGSEFAQKLLKKFSLLKPWA

What was measured:
[1] = system: caspase-8; assay: Caspase-8 activity in human corneal epithelial cells treated with TNF-α; format: cell-based
Description: FIG. 12 graphically illustrates the ability of lacritin polypeptides to block TNFα induced caspase-8 activity in human corneal epithelial cells. The ordinate represents relative fluorescence units. White bars indicate 1 hour and diagonally-hatched bars indicate 6 hours.
Lacritin-induced proliferation and calcium signaling was studied in the human corneal epithelial (HCE) cell line. HCE cells were grown at 37° C. in DMEM F/12 supplemented with 10% FBS and 50 μg/ml gentamicin. Each experiment was done in a dose- and time-dependent manner using TNF-α (5-20 ng/ml) and lacritin (1-10 nM). Cell viability was measured spectrophotometrically at an absorbance of 570 nm using the MTT assay. Caspase-8 activity was detected fluorometrically by measuring cleavage of the fluorogenic substrate IETD-pNA at an excitation wavelength of 405 nm. Lacritin-induced cell proliferation was studied by H3-thymidine incorporation and via fluorescence-based detection of PKC, PLC and cAMP. Calcium signaling was detected by confocal microscopy of Fluo-4 loaded cells.

[2] = system: caspase-9; assay: Caspase-9 activity in human corneal epithelial cells treated with TNF-α; format: cell-based; details: lacritin polypeptides 10 nM
Description: FIG. 13 graphically illustrates the ability of lacritin polypeptides (10 nM) to block TNFα induced caspase-9 activity in human corneal epithelial cells. The ordinate represents relative fluorescence units. White bars indicate 6 hours and diagonally-hatched bars indicate 9 hours.
Caspase-9 activity was measured in cells treated with various combinations of TNF-α, fragments of lacritin, and the PKC inhibitor Go6976. […] The PKC-α inhibitor Go6976 and C-25 fail to block this increase of the downstream initiator caspase-9.

[3] = system: PKCα; assay: PKCα translocation in HSG cells (immunofluorescence, fractionation); format: cell-based, human; details: for PKCα translocation: 15 min after treatment
Source text: In order to dissect the molecular pathways leading to the cell survival by lacritin, protein kinases and transcriptional factors were studied by Western blotting and immunofluorescence microscopy.
Images were acquired at 2-3 s intervals using LaserSharp2000 software (Bio-Rad) and store on disc for later analysis.

[4] = system: PKCα; assay: Phospho-PKCα blot of HSG cell lysates; format: cell-based, human; details: for concentration of optimal dephosphorylation: increasing molar levels
Description: For phosphotyrosine blotting and mitogenesis assays, cells in serum-containing media were seeded overnight in 24-well plates at a density of 0.5×10^5 cells/mm^2 corresponding to 20-30% confluency after cell attachment, incubated in serum-free media without supplements for 24 h (phosphotyrosine) or washed with serum-free media without supplements three times (mitogenesis) and incubated with lacritin (1-1000 nM), or positive controls EGF (1.6 nM) and 10% fetal bovine serum, or negative controls bovine serum albumin or no additive in serum-free media without supplements for the indicated times (phosphotyrosine) or 30 h (mitogenesis). For phosphotyrosine assays, cells were extracted in 1% NP40 containing sodium vanadate (2 mg/ml), DTT (5 mg/ml), protease inhibitors, 50 mM HEPES, 100 mM NaCl, and 2 mM EDTA; then separated by 10% SDS PAGE, transferred and blotted. The following antibodies (Cell Signaling Technology, Beverly Mass.) were tested: antiphosphotyrosine antibody (P-Tyr-100), anti-phospho-PKC αβII, anti-PKCα, anti-phospho-PKCδ, anti-phospho-PKC (pan), anti-p44/42 MAPK, anti-phospho-Raf, anti-phospho-SAPK/JNK, anti-phospho-p38 Map kinase, anti-phospho-Raf, anti-phospho-Akt, anti-phospho-CaMKII, anti-phospho-MARCKS, or anti-tubulin (loading control). After washing, bound antibodies were detected with peroxidase-labeled secondary antibody and ECL. With the exception of at least nine proteins in the P-Tyr-100 blot (FIG. 1), none of the effectors tested above appeared to be phospho-activated during lacritin signaling (not shown). For mitogenesis (Hussaini et al., '00), [^3H]-thymidine (2 mCi/ml) was added for the next 6 h. Incorporation was stopped with ice-cold phosphate buffered saline and followed by addition of cold and then room temperature trichloracetic acid (10%) for 10 min each, washing of cells with phosphate buffered saline, solubilization with 1 N sodium hydroxide, neutralization with 1 N hydrochloric acid, addition of scintillation fluid and then quantitation in a scintillation counter. To deplete PKCα in HSG cells, a pool of four PKCα-specific siRNAs (100 nM) were transfected via LipofectAMINE 2000 in Opti-MEMI Reduced Serum Medium (Invitrogen, Grand Island N.Y.) without serum and antibiotics according to manufacturer's instructions. Each of the four siRNAs was also individually transfected. In negative controls, cells were transfected with a pool of four lamin-specific siRNAs (Upstate LLC, Charlottesville Va.; Dharmacon Inc, Lafayette Colo.). Seventy-two hours post-transfection, mitogenesis was assessed by co-addition of 10 […] lacritin and [^3H]-thymidine (2 mCi/ml) (Amersham, Piscataway N.J.) for 24 hrs. PKCα depletion was confirmed by Western blotting.
We imaged PKCα in cells 15 min after treatment (FIG. 8). Nonmitogenic construct/fragment C-25 (10 nM) had no effect, leaving PKCa diffusely distributed throughout the cytoplasm. […] The phosphorylation state of PKCα influences its translocation site. Hyperphosphorylated PKCα becomes associated with the plasma membrane whereas hypophosphorylated or dephosphorylated PKCα is known to translocate to the perinuclear Golgi region. To determine if the latter is true and if so over what time course, we treated cells with lacritin, N-24 and C-25, and then blotted cell lysates for phospho-PKC ? (FIG. 8B). 10 nM lacritin promotes PKC ? dephosphorylation within 1 min of addition. This form is sustained for at least 15 min, but by 30 min has returned to baseline phosphorylation. Dephosphorylation triggered by increasing molar levels of lacritin or N-24 mirrored the proliferation response with optimal dephosphorylation at 10 nM. Non-mitogenic C-25 had no effect, whereas positive control 4β-phorbol 12-myristate 13-acetate-promoted hyperphosphorylation.

[5] = system: NFATC1; assay: NFATC1 translocation in HSG cells (immunofluorescence); format: cell-based, human; details: for NFATC1 translocation: HSG and corneal epithelial cells
Source text: In order to dissect the molecular pathways leading to the cell survival by lacritin, protein kinases and transcriptional factors were studied by Western blotting and immunofluorescence microscopy. […] On the other hand, there were increased activities of transcriptional factors such as nuclear factor of activated T-cells (NFAT) and NF-kappaB. In FIG. 4, translocation of PKC alpha and NFAT was detected by immunofluorescence coupled with confocal microscopic imaging. In resting HSG cells (left three images), PKC alpha distributes mainly in cytosol and membrane. Similarly, NFATc1 was also found to localize largely in cytosol. Cellular co-location of PKC alpha and NFATc1 is apparent upon merging the two immunofluorescent images, as the merged cy3 and FITC labels produce distinctive yellow color.
Images were acquired at 2-3 s intervals using LaserSharp2000 software (Bio-Rad) and store on disc for later analysis. For translocation assays, HSG cells […] phorbol 12-myristate 13-acetate, […], then washed with phosphate-buffered saline, formaldehyde-fixed, blocked with phosphate-buffered saline containing 1% bovine serum albumin and 10% goat serum, incubated with anti-PKCα (C-20) or anti-NFATC1 (mab 7A6) (both from Santa Cruz Biotechnology Inc.; Santa Cruz, Calif.) followed by secondary Cy3-, FITC- or Alexa488-labeled antibodies and confocal microscopic visualization (Bio-Rad Radiance2100).

[6] = lacritin treatment for 1 hour, immunofluorescence

Row | Molecule | effect on TNF-α-induced caspase-8 activity [1] | effect on TNF-α-induced caspase-9 activity [2] | effect on lacritin-dependent PKCα translocation ([3]; pertussis toxin 100 ng/ml, Go 6976, U73122, U73343, cyclosporine 1 μM, nifedipine 10 μM) | effect on lacritin-dependent PKCα dephosphorylation ([4]; pertussis toxin 100 ng/ml, Go 6976, U73122, U73343 1 μM) | effect on lacritin-dependent NFATC1 translocation ([5]; cyclosporine 1 μM, nifedipine 10 μM) | PKCα translocation [3] | concentration of optimal dephosphorylation [4] | NFATC1 translocation [5] | PKC alpha at the cell membrane ([3]; about 5 minutes lacritin treatment, subcellular fractionation, Western blotting) | PKC alpha localization [3, 6] | time dephosphorylated form is sustained ([4]; 10 nM lacritin) | time of return to baseline phosphorylation ([4]; 10 nM lacritin) | time to PKCα dephosphorylation ([4]; 10 nM lacritin) | NFAT localization [5, 6]
1 | Cn1c2ccccc2c2c3c(c4c5ccccc5n(CCC#N)c4c21)CNC3=O [Go 6976] | fail to block | fail to block | inhibited | inhibited | inhibited | – | – | – | – | – | – | – | – | –
2 | B1 | blocked | blocked | – | – | – | shifted PKCα primarily to the perinuclear Golgi region | 10 nM | translocates into the nucleus | – | – | – | – | – | –
3 | B2 | completely blocked | blocked | – | – | – | shifted PKCα primarily to the perinuclear Golgi region | 10 nM | translocates into the nucleus | very little PKC alpha was detected at the cell membrane | localize outside of the nuclear envelope | at least 15 min | ≤ 30 min | ≤ 1 min | translocates into nuclear compartment
